Article PMC5341950, “Antitumor activity of a novel anti-vascular endothelial growth factor receptor-1 monoclonal antibody that does not interfere with ligand binding” (Oncotarget, 2016)

What was measured:
[1] = molecular target: T1, recombinant VEGFR-1/Fc chimera (UniProt P17948 27-758); test: ELISA; 96-well Maxisorp plates coated with 10 ug/ml sVEGFR-1; binding buffer PBS with 3% BSA, 1 mM CaCl2, 0.5 mM MgCl2; 2 ug/ml VEGFR-1/Fc, 4 ug/ml VEGFR-2/Fc or 1 ug/ml NRP-1/Fc added; detection with alkaline phosphatase-conjugated anti-human Fc antibody, absorbance at 405 nm; selected wells pre-incubated with 5 ug/ml D16F7 mAb for 30 min at room temperature; conditions: both partners purified
T1 construct: Vascular endothelial growth factor receptor-1 (VEGFR-1), extracellular region, fused with the Fc region of human immunoglobulins; Bought chimera; source: bought: R&D Systems

[2] = molecular target: T2, recombinant VEGFR-2/Fc chimera (UniProt P35968 20-764); test: as above; conditions: both partners purified
T2 construct: Vascular endothelial growth factor receptor-2 (VEGFR-2), extracellular region, fused with the Fc region of human immunoglobulins; Bought chimera; source: bought: R&D Systems
T2 sequence (P35968 20-764, stated change not applied): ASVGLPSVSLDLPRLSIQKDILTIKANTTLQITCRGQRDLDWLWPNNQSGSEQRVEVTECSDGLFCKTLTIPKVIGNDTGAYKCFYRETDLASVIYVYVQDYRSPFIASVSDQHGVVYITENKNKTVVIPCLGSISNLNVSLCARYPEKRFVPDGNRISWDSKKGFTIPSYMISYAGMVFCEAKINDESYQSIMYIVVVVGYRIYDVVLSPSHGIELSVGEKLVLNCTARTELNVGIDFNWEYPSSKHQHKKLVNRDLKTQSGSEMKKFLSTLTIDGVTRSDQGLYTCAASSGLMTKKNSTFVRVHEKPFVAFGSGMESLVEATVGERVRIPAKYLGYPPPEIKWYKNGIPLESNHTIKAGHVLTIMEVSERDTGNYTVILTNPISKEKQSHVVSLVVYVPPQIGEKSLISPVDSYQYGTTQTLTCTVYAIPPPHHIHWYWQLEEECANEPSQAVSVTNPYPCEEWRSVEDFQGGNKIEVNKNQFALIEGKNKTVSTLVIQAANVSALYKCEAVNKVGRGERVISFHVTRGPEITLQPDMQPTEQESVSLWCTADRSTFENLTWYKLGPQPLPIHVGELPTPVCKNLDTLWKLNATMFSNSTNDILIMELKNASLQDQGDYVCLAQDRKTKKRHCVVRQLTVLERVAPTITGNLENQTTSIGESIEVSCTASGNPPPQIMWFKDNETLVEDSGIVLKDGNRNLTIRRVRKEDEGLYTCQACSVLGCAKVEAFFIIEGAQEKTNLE

B1: native human soluble VEGFR-1 (sVEGFR-1) (receptor, UniProt P17948-2 27-687, looked up)
chain: SKLKDPELSLKGTQHIMQAGQTLHLQCRGEAAHKWSLPEMVSKESERLSITKSACGRNGKQFCSTLTLNTAQANHTGFYSCKYLAVPTSKKKETESAIYIFISDTGRPFVEMYSEIPEIIHMTEGRELVIPCRVTSPNITVTLKKFPLDTLIPDGKRIIWDSRKGFIISNATYKEIGLLTCEATVNGHLYKTNYLTHRQTNTIIDVQISTPRPVKLLRGHTLVLNCTATTPLNTRVQMTWSYPDEKNKRASVRRRIDQSNSHANIFYSVLTIDKMQNKDKGLYTCRVRSGPSFKSVNTSVHIYDKAFITVKHRKQQVLETVAGKRSYRLSMKVKAFPSPEVVWLKDGLPATEKSARYLTRGYSLIIKDVTEEDAGNYTILLSIKQSNVFKNLTATLIVNVKPQIYEKAVSSFPDPALYPLGSRQILTCTAYGIPQPTIKWFWHPCNHNHSEARCDFCSNNEESFILDADSNMGNRIESITQRMAIIEGKNKMASTLVVADSRISGIYICIASNKVGTVGRNISFYITDVPNGFHVNLEKMPTEGEDLKLSCTVNKFLYRDVTWILLRTVNNRTMHYSISKQKMAITKEHSITLNLTIMNVSLQDSGTYACRARNVYTGEEILQKKEITIRGEHCNKKAVFSRISKFKSTRNDCTTQSNVKH
notes: The methods call it 'Native human sVEGFR-1'; also called recombinant sVEGFR-1; source: bought: ReliaTech
binding result [1]: binds
binding result [2]: binds
